Here are results for two molecules from US6900050 (ROCKEFELLER UNIVERSITY, dated 2005).

For one test, the target named is T1, GST alone (control) (UniProt P08515 1-218 = GST).
T1 construct: Control for the glutathione-Sepharose coprecipitations; also called GST proteins
Kind of test: glutathione-Sepharose coprecipitation from 293 cells, Western blot (control). The protocol: Cell lysates were precipitated with glutathione-Sepharose beads, and analyzed by Western blot analysis with anti-TRAF1 or anti-TRAF2 antibodies. The 293 cells were transfected with various combinations of expression vectors and thirty-six hours after transfection, cells were harvested in phosphate-buffered saline/1 mM phenylmethylsulfonyl fluoride, pelleted, and lysed in lysis buffer (20 mM Hepes (pH 7.9), 100 mM KCl, 300 mM NaCl, 10 mM EDTA, 0.1% NP-40, plus protease inhibitors). After lysis, aliquots of cell lysates were incubated with glutathione-Sepharose (Pharmacia) for 2 hr at 4° C. […]
However, since the interaction of TRAFs with the cognate members of the TNFR superfamily is mediated through the TRAF-C domain rather than the entire TRAF domain, it was-important to determine whether TRIP can indirectly interact with the receptors through TRAFs. […] Cell lysates were precipitated with glutathione-Sepharose beads, and analyzed on Western blots with anti-HA, anti-TRAF1, and anti-TRAF2 antibodies. […]
Aliquots of cell lysates were subjected for purification with glutathione-Sepharose beads as described in Experimental Procedures. Proteins coprecipitated with GST-fusion proteins were analyzed by Western analysis with an anti-HA mAb (12CA5), and anti-TRAF1- or anti-TRAF2-polyclonal antibodies.
For orientation: A western blot detects proteins with antibodies after separation by electrophoresis.

In test [1] the target is T2, LexA DNA binding domain-TRAF2 fusion protein (UniProt P0A7C2 1-202; P39429 1-501).
T2 construct: also called LexA-TRAF2
T2 sequence (looked up): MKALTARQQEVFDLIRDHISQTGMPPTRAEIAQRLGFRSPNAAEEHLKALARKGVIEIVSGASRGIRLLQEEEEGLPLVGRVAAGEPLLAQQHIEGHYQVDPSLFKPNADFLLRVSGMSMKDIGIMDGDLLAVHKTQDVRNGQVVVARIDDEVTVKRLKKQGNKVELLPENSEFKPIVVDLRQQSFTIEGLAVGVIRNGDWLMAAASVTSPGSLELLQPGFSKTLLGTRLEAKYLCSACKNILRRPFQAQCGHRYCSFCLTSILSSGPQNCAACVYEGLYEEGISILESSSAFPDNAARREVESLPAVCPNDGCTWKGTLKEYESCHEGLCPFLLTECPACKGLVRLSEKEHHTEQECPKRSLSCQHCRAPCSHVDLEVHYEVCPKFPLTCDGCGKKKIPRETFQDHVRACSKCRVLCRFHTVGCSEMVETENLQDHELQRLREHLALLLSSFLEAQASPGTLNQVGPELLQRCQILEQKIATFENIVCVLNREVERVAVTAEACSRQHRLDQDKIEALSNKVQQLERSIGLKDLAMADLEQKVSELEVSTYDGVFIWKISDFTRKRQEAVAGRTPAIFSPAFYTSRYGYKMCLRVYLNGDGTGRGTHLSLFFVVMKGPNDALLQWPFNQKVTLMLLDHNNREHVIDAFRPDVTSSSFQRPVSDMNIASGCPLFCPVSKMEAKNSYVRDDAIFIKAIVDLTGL
Kind of test: yeast two-hybrid, b-gal activity. An excerpt: (§1) The yeast two-hybrid assay was used to determine the structural requirements for the interaction of TRIP with TRAF1 or TRAF2. […] Expression vectors encoding wild type TRIP or the indicated deletion mutants of TRIP fused to the transcription activation domain were cotransformed into yeast with plasmids expressing LexA DNA binding domain-TRAF1 or -TRAF2 fusion proteins. Inter-actions between fusion proteins were scored by measuring b-gal activity of yeast transformants. The "+" indicates average b-gal activity of three independent yeast transformants was higher than 1000 Miller units; and the "−" indicates average b-gal activity of three independent yeast transformants was about 100 Miller units, which was similar to that of negative controls (bait plasmid alone).

The target in test [2] is T3, LexA DNA binding domain-TRAF1 fusion protein (bait plasmid pEG202-TRAF1) (UniProt P0A7C2 1-202; P39428 1-409).
T3 construct: also called LexA-TRAF1
T3 sequence (looked up): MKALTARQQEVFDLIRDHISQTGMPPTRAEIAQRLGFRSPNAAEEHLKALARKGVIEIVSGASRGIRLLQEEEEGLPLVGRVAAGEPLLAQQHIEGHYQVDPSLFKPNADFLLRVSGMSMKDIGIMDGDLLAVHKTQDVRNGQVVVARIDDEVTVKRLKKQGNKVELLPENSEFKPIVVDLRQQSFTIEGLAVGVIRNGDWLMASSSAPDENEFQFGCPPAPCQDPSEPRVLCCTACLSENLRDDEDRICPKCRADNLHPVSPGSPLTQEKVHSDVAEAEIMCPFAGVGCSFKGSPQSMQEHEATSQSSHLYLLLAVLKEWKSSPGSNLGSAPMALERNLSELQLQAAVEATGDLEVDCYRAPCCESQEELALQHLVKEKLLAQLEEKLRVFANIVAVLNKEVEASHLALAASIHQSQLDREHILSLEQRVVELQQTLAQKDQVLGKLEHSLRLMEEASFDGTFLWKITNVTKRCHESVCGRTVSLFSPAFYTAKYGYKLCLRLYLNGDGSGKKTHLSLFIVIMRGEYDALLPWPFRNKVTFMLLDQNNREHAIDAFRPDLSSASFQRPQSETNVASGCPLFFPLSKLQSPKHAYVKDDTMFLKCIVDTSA
Kind of test: yeast two-hybrid, b-gal activity.
Description: as §1

T1 sequence (P08515 whole entry): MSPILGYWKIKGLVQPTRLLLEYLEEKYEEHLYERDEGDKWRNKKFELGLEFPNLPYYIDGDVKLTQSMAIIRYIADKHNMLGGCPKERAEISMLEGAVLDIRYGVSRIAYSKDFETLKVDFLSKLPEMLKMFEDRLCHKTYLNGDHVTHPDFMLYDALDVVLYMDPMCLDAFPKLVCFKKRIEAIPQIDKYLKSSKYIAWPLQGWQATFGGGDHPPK

B1: HA epitope tagged-TRIP expressed in 293 cells (other, not shown: small tags and cut ends)
chain: MPILSLCTICSDFFDHSRDVAAIHCGHTFHLQCLIQWFETAPSRTCPQCRIQVGKKTIINKLFFDLAQEEENVLDAEFLKNELDSVKAQLSQKDREKRDSQAIIDTLRDTLEERNATVESLQNALNKAEMLCSTLKKQMKFLEQRQDETKQAREEAHRLKCKMKTMEQIELLLQSQRSEVEEMIRDMGVGQSAVEQLAVYCVSLKKEYENLKEARKATGELADRLKKDLVSSRSKLKTLNTELDQAKLELRSAQKDLQSADQEITSLRKKSDDPPGNLEPASATNETVSRLVFESPAPVEMMNPRLHQPPFGDEIDLNTTFDVNTPPTQTSGSQHCLPKKLCLERARSPMQNVLKKVHKVSKPESQLSLGGQRCVGELDEELAGAFPLFIRNAVLGQKQPNRTTAESRSSTDVVRIGFDGLGGRTKFIQPRDTTIIRPVPVKSKAKSKQKVRIKTVSSASQPKLDTFLCQ
notes: also called HA-TRIP
Consider B1, for which, in the test with GST alone (control), the binding result is listed as “no binding”.

B2: mutant TRIP lacking the N-terminal RING finger and the coiled-coil domain (residues 275-470) fused to the transcription activation domain (other, not shown: large carriers)
chain: PGNLEPASATNETVSRLVFESPAPVEMMNPRLHQPPFGDEIDLNTTFDVNTPPTQTSGSQHCLPKKLCLERARSPMQNVLKKVHKVSKPESQLSLGGQRCVGELDEELAGAFPLFIRNAVLGQKQPNRTTAESRSSTDVVRIGFDGLGGRTKFIQPRDTTIIRPVPVKSKAKSKQKVRIKTVSSASQPKLDTFLCQ
In the case of B2, the binding result in test [1] and in test [2] was “no binding” throughout.
